Laboratory results as given in patent publication US7795009.

Test system: prothrombin

## Factor Xa
  sensitized acceptor emission of the thrombin beacon as a function of time: This conversion resulted in a time-dependent increase of beacon signal
